Assay results as given in a protein production outcome set (Wang et al. 2014).

Assay: label from the status in PepcDB records
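Note: failed if final PepcDB status was selected cloned or expressed and not failed if soluble or beyond.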

In the case of “SLLSYQHGYHAGNFADVIKHITLTRLLAYLTHKDKPLFYLETHSGRGIYDLKDKQSLKTEEYKEGINPVWLDRENLPSLFLEYISVIKQINLNSTLSYYPGSPYFAINQLRSQDRLYLCELHPTEYNFLLKLPHFNKKVYVNHTDGVSKLNALLPPPEKRGLIFIDPSYERKEEYKEIPYAIKNAYSKFSTGLYCVWYPVVNKAWTEQFLRKMREISSKSVRIELHLNPLINEGMTGCGLWIINPPYTFPSEIKLVLETLTTYFNPGSSSYMIESGSKLCHGL”, the protein production is reported as “not failed”.
For “MDRSLQSTHAKLVARDIQRLTQSPTESNSFSLLGGACVSRVEIVGTIVSRDLTPKFLKFGVDDGTGCVTCVMWLNQLTSSYFSRWDPATILLLASAARKQAAQIRIGAVARVRGRVGSYRGVMQITANVAVAERDPNAEILHWLECLKLGQSCYRVRIQS”, the protein production was “failed”.
With “MIPSSSPMESRHRLSFSNEKTSRRRFQRIEKGVKFNTLKLVLICIMLGALFTIYRFRYPPLQIPEIPTSFGLTTDPRYVATAEINWNHMSNLVEKHVFGRSEYQGIGLINLNDNEIDRFKEVTKSDCDHVALHLDYAAKNITWESLYPEWIDEVEEFEVPTCPSLPLIQIPGKPRIDLVIAKLPCDKSGKWSRDVARLHLQLAAARVAASSKGLHNVHVILVSDCFPIPNLFTGQELVARQGNIWLYKPNLHQLRQKLQLPVGSCELSVPLQAKDNFYSAGAKKEAYATILHSAQFYVCGAIAAAQSIRMSGSTRDLVILVDETISEYHKSGLVAAGWKIQMFQRIRNPNAVPNAYNEWNYSKFRLWQLTEYSKIIFIDADMLILRNIDFLFEFPEISATGNNATLFNSGLMVVEPSNSTFQLLMDNINEVVSYNGGDQGYLNEIFTWWHRIPKHMNFLKHFWEGDEPEIKKMKTSLFGADPPILYVLHYLGYNKPWLCFRDYDCNWNVDIFQEFASDEAHKTWWRVHDAMPENLHKFCLLRSKQKAQLEWDRRQAEKGNYKDGHWKIKIKDKRLKTCFEDFCFWESMLWHWGETNSTNNSSTTTTSSPPHKTALPSL” the protein production was “failed”.
For “MDHTSPTYMLANLTHLHSEQLLQGLNLLRQHHELCDIILRVGDVKIHAHKVVLASVSPYFKAMFTGNLSEKENSEVEFQCIDETALQAIVEYAYTGTVFISQDTVESLLPAANLLQIKLVLKECCAFLESQLDPGNCIGISRFAETYGCRDLYLAATKYICQNFEAVCQTEEFFELTHADLDEIVSNDCLNVATEETVFYALESWIKYDVQERQKYLAQLLNSVRLPLLSVKFLTRLYEANHLIRDDRTCKHLLNEALKYHFMPEHRLSHQTVLMTRPRCAPKVLCAVGGKSGLFACLDSVEMYFPQNDSWIGLAPLNIPRYEFGICVLDQKVYVIGGIATNVRPGVTIRKHENSVECWNPDTNTWTSLERMNESRSTLGVVVLAGELYALGGYDGQSYLQSVEKYIPKIRKWQPVAPMTTTRSCFAAAVLDGMIYAIGGYGPAHMNSVERYDPSKDSWEMVASMADKRIHFGVGVMLGFIFVVGGHNGVSHLSSIERYDPHQNQWTVCRPMKEPRTGVGAAVIDNYLYVVGGHSGSSYLNTVQKYDPISDTWLDSAGMIYCRCNFGLTAL”, the protein production was “failed”.
With “AHKLFIGGLPNYLNDDQVKELLTSFGPLKAFNLVKDSATGLSKGYAFCEYVDINVTDQAIAGLNGMQLGDKKLLVQRASVGAKNA” the protein production was “not failed”.
For “MIKRLKVNVIDLSSLVYLIFAVIPLFTFDLKGPYWMYVIIFIIFTISYTALAIFTEVLSTKMIYTFLILHYIGITYLVYSVGPATSLFFFFSSFILPYVLKVKMKSIAFLIFIVVMLINFILIYVADPLSLGFIAVMHIAILLITVGNFKQSETIKMKNALEEKNKHINVLIAEQERNRIGQDLHDTLGHVFASSSIKSELAIKLIDSDSEKAKLQMIEVNNISKESLNKVRSIVNDLKIQSFEEEVASMETLLKNANLNFEFFNAELAKGISPAKQAILAMILREAINNVLKHAHATSVTGSLTETQNDITLTIIDNGIGMDDLKEHDLKSIKERVALMNGSIEIQSNHGLCISIKISRGDA”, the protein production was “failed”.
In the case of “MRAASTSKPVGAHEETGHLGGAHSTYVSSAQVTNAEHENELQVVDLPRAPPSLSKAVTYFYITGFGRFALMEDNPTERVVLRLREILQDPGRVQMLHERLVRIVDLRILEVSAAAAHETLAEMKTQCLQMRQKPNISSDGRNRTVCFLHLGVDASADGFLVERSAVNEALFRFPDERGWQPTTPIPIVRGAQLGARYELDGEALASLCERTESLLNEWGRTNWTVRVNDDAGRFLCNYLFYLSAFEGLAENGHHLWQTFFLHCPMETVAPLDVQVDVVLAFMVAVAQSNAQQGPLEGILAR”, the protein production is reported as “not failed”.
For “MLSMIGLVGGLVLLIVLTLRGMNLFISAPLCAVIVALCSGVPLLTGDVNFVSAYMDGFASFVAAWFFMFLLGSMFGKFMEDTGAADSVARWIINKLGRKQAVLAVVLACAILTYGGVSVFVVAFSVYPMALSLFKDANLPRRFIPAALAFGSVTFTMTSAGSPEIQNWIPVKYLGTSPYAAWEVSLVVAVLMATFGYWWLRKIINRAIANGEKFEAREGDPILLERKLPSPISGLIPLLVVLGLSFTFHDTLQQNALIVALLGGVIAIAVINFKHFHKPQTAIHEATTGALVAIGNTAAVVGFGSIAKITPAFDAAVTAMTSLPGNELVGAAVAVSVIAGLTGSASGGQAIALPEVGPHYMAAGVNPEQLHRIVSISSGALDSLPHNGYVVTTIRAICNEKHSAAYWAVAAVTVVVPLMGLAVAIGLFML”, the protein production was “failed”.
For “MEILSLGEKIKARRKELNMTLKDLAGDRITPGQISLVESGKSNPSMDLLEYLAGALNTSVEYLMESEETQAEKICVYYENTAEAYMLNDELMEAEQYLEKAMYYAENYKISYRKARTLYLYGCINMNKNELGVAQQFFLSSNVLFIKLNHYEDIINTFINLGKITLNLKAYNSSCSYFEQAERVSRDNDIGNDFLIGEIYYYMSLVYFKMNNSNKTIKYCLMAKEKFAELENKKEYARTLLILSKEYSKSGDVDNAIKYSKKALKAFKENDNMFAVADIENELGKLFYEFENIEESFIHLNKAKEIRKKTKGHEFIETLCNICENYIKLKDTENSQKVLNEIKENIDGNNVFDILKYYMLKYRISILNRSLKEAENILLRALQYAENMELEKEAAEFSVIIGKYYIDNGDDVEAAKYLNSGIEKFKKIGVLKDL”, the protein production was “failed”.
For “MKVIICGAGQVGYGIAEQLSREDNEVSVIDTAAPLITAITETLDVRGYVGHGAHPDMLAKAGADQADMIIAVTLHDEINIVACEVAHALFSVPTKIARIRDQSYMKPEYADLFSRENMSIDVTISPEVEVGKMVLRRIAFPGATDVVRFAEDTIYMLAIECMEDCPVINTPLQQLSSLFPDLIATVVGVYRDGILKVAHSSEQLRVGDLAYVICQRQHARRTLSLFGHEEQEAQRIVIAGAGNIGHFVAHKIEEMQSKTRVKIIEADRDRAIAASEQLSHTIVMHGSALDQKILMQADIQDADLIVTLTNNDQTNILAAVIAKQLGCKSNLALLNSTSFHDVARSLGLDAYINPRAVTISRVLQHVRKGRIRSVYAVQRGSAEVIEAEALETSPLVGQSFRDIDMPDGVRIGAIYRDGVVIRPDGSTKIKAKDRVVLFASADAVRDVEQLFRVSIQYF”, the protein production was “failed”.
For “MSPKKDKFLDNAQKFLVKGQLDRALREYEQAVAIDPKDVRVRQKYAELLVRANRKDDALKEFEVIGKYYSDNGFYLKAIAVYKQIQKLTPSNLDISLTLGALNEKQGLIGNALAEYKFVFDHYERSNRFIDAVAVLEKMLAADRDNLNIRLKLAETRHRANLIDDAYHDYTELARELRSKGDNAAYTRVCERIASMFPDRKDFLLTVAENQIRDGKAAAAIPVLKQIVGDDRWNPKALYLLADAARAVADPAMVKGAYGQIIKRFPGEITAIKGFLFSLKAEGNVDEAVRVLRHVEPELIKAEPETLEQFYLSFRDLSPDHPGIAEGLLRIRGTAGVDEPEPMVEQVPDVAEPEKEADFAPQPEESDSVMEEPPAEDIPWEEEIDISFDSDGASVEGNRPTEGEASESPSFLHDEGMSLVEADESPIRFDDSSEEETREVEVELADFSSITPDWLDGVPDSAMDKPGETTFSEGLSLDFTDGELEDVIPPPPLDSPMPKPDKYGLDGLFSAFKKGVGEQLTQDDTESHYSLGIAYKEMGLFDDAIVEFQSAARDPRRLADCITLQGICSREKGDPAKAEEYFRSGLAVEGLNREERLCLTYELALLYEMIGDRTRALAGYREALALNPGFRDVAQKIAILRSDGDTHDAADLELLDLDEVEEGAG”, the protein production was “failed”.
In the case of “MGHHHHHHSHMIRINEIKLPLDHEEGALLDAITKKLGIPAEKVISFNVFRRGYDARKKTNIHLIYTLDIIVEGDETALLAKFANDPHVRQTPDMEYKFVAKAPENLTERPIVIGFGPCGLFAGLVLAQMGFNPIIVERGKEVRERTKDTFGFWRKRTLNPESNVQFGEGGAGTFSDGKLYSQVKDPNFYGRKVITEFVEAGAPEEILYVSKPHIGTFKLVTMIEKMRATIIELGGEIRFSTRVDGLHMEDGQITGVTLSNGEEIKSRHVVLAVGHSARDTFEMLHERGVYMEAKPFSVGFRIEHKQSMIDEARFGPNAGHPILGAADYKLVHHCKNGRTVYSFCMCPGGTVVAATSEEGRVVTNGMSQYSRAERNANSAIVVGISPEVDYPGDPLAGIRFQRELESNAYKLGGENYDAPAQKIGDFLKGRDPSQLGDVEPSFTPGIKLTDLSKALPPFAVEAIREAIPAFDRKIKGFASEDGLLTGVETRTSSPVCIKRGKDFQSVNLKGFYPAGEGAGYAGGILSAGIDGIKVAEAVARDIVAAMENA”, the protein production is reported as “not failed”.
In the case of “MEQDASAKNPDIETENKGAISEEEALIQREYSLLIQDYLNSNHRRKVEKIDKAFHLAKDAHAGAKRRSGEPYILHPIAVARIVCQEIGLGSTSICCALLHDVVEDTEYTVEDMRDMFGDKVAQIVDGLTKISGEVFSNSSAQAENFRKLILTMNDDIRVILIKIADRLHNMRTLDSMLPAKQMKIAGETQYVYAPLAHRLGLFAIKSELEDLSFKYEHPQEYEAIKEKIRITEQHRLEMFEHFAAPLKQRFAGMDMSYEMKARVKSVYSIWKKMEKKGVPFEEIYDLFAVRIIFESSPTIPDKNRCWEIYSAITDIYRNRPDRIRDWVSNPKSNGYQALHLTVMGPDGEWVEVQIRSRRMDDIAEKGFAAHWKYKGDNVEEDSELEKWLSTIQEILENPNPNALDFLDTIKLNLFSNEVMVFTPKGEIKRLPQGATALDFAYSLHSDLGDHCIGAKVNHKLVPLSYVLNSGDQVEVLSSKSQQPTEEWLRYVTTARAKSKVDTFLRRKRRELINRGEERVVSVIRTSESMVSAELLDRIAAYFGFLNRETFFYAVGTGTVSLPESFKKLLQGEHSGNFLMRAIRSALKAGKSNKTSSPSGKPAEKEDKKAYNTKKTYILQEDEFSRNYQIAECCKPIPGDDAFGFINDDNTVVVHKRSCPIAMRLKSSFGNRILSTEWSLHSRTSFEAKLALKGIDSTGILTAVTQVISEDFNVGIKHIQLTAKDGIFEGQIHLLVHSSDDLLKICHQLRQNKYIQSVGRIS”, the protein production is reported as “failed”.
For “MFDTKIAVILRDDLAVWQKLNVTAFLMSGIVAQTGEIIGEPYRDGAGNVYNPLSIQPIVVMATDQEALRKIHQRSLERDITTSLYIEEMFATGHDAANRQVFSHFSPDTAKVVGMALRADRKIVDKITKGAKLHA”, the protein production was “not failed”.
